This test concerns the target T1, human neonatal Fc-receptor (FcRn) (human, UniProt P55899 24-297; P61769 21-119).
T1 construct: also called human FcRn; huFcRn
The test is described as follows: symmetric HHY-AAA mutation.

T1 sequence (P55899 24-297 limits assumed, chain 1 of 2): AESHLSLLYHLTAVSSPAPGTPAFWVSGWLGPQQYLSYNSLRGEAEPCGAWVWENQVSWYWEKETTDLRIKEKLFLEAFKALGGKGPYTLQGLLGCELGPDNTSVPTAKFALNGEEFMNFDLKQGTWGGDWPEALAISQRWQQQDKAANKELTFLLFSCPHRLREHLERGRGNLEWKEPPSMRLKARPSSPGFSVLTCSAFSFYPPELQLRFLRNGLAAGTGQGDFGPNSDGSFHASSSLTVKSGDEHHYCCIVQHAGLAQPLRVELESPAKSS
T1 sequence (P61769 21-119 limits assumed, chain 2 of 2): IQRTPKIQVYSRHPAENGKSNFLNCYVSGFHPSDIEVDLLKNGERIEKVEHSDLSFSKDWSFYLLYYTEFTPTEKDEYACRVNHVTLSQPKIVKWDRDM

B1: IGF-1R 0045 (antibody, human IgG1, kappa)
light: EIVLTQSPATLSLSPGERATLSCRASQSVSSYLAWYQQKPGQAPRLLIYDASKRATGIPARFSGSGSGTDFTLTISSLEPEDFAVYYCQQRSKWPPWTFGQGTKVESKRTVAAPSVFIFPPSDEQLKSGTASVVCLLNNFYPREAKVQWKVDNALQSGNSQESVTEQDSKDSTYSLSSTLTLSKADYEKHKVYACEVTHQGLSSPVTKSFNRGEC
heavy: QVELVESGGGVVQPGRSQRLSCAASGFTFSSYGMHWVRQAPGKGLEWVAIIWFDGSSTYYADSVRGRFTISRDNSKNTLYLQMNSLRAEDTAVYFCARELGRRYFDLWGRGTLVSVSSASTKGPSVFPLAPSSKSTSGGTAALGCLVKDYFPEPVTVSWNSGALTSGVHTFPAVLQSSGLYSLSSVVTVPSSSLGTQTYICNVNHKPSNTKVDKKVEPKSCDKTHTCPPCPAPELLGGPSVFLFPPKPKDTLMISRTPEVTCVVVDVSHEDPEVKFNWYVDGVEVHNAKTKPREEQYNSTYRVVSVLTVLAQDWLNGKEYKCKVSNKALPAPIEKTISKAKGQPREPQVYTLPPSRDELTKNQVSLTCLVKGFYPSDIAVEWESNGQPENNYKTTPPVLDSDGSFFLYSKLTVDKSRWQQGNVFSCSVMHEALANHATQKSLSLSPG
notes: Roles inferred; also called <IGF-1R> IgG1 with H310A, H433A, Y436A; anti-IGF-1R IgG1 with HHY-AAA mutation
As for B1, the binding result was “no binding”.

(Values after patent US20190127457A1 (Hoffmann-La Roche, published 2019).)
